Results as given in paper PMC8916728.

Molecular target: 1-32–captured Pentamer (HCMV Pentamer bound by 1-32 IgG) (human cytomegalovirus (strain Towne) | human) (UniProt P17176)
Test: BLI

B1: untagged NRP2 (receptor)
chain: RGQPDPPCGGRLNSKDAGYITSPGYPQDYPSHQNCEWIVYAPEPNQKIVLNFNPHFEIEKHDCKYDFIEIRDGDSESADLLGKHCGNIAPPTIISSGSMLYIKFTSDYARQGAGFSLRYEIFKTGSEDCSKNFTSPNGTIESPGFPEKYPHNLDCTFTILAKPKMEIILQFLIFDLEHDPLQVGEGDCKYDWLDIWDGIPHVGPLIGKYCGTKTPSELRSSTGILSLTFHTDMAVAKDGFSARYYLVHQEPLENFQCNVPLGMESGRIANEQISASSTYSDGRWTPQQSRLHGDDNGWTPNLDSNKEYLQVDLRFLTMLTAIATQGAISRETQNGYYVKSYKLEVSTNGEDWMVYRHGKNHKVFQANNDATEVVLNKLHAPLLTRFVRIRPQTWHSGIALRLELFGCRVTDAPCSNMLGMLSGLIADSQISASSTQEYLWSPSAARLVSSRSGWFPRIPQAQPGEEWLQVDLGTPKTVKGVIIQGARGGDSITAVEARAFVRKFKVSYSLNGKDWEYIQDPRTQQPKLFEGNMHYDTPDIRRFDPIPAQYVRVYPERWSPAGIGMRLEVLGCDWTDSKPTVETLGPTVKSEETTTPYPTEEEATECGENCSFEDDKDLQLPSGFNCNFDFLEEPCGWMYDHAKWLRTTWASSSSPNDRTFPDDRNFLRLQSDSQREGQYARLISPPVHLPRSPVCMEFQYQATGGRGVALQVVREASQESKLLWVIREDQGGEWKHGRIILPSYDMEYQIVFEGVIGKGRSGEIAIDDIRISTDVPLENCMEPISAFAGENFKVDIPEIHEREGYEDEIDDEYEVDWSNSSSATSGSGAPSTDKEKSWLYTLDPILITIIAMSSLGVLLGATCAGLLLYCTCSYSGLSSRSCTTLENYNFELYDGLKHKVKMNHQKCCSEA
For B1, which Kd is on record?
Its Kd is 133 nM.
